Measured values reported in publication PMC12499412, “Engineering DNA Origami Captors for TGFβ1 Sequestration to Enhance Tumor Immune Modulation and Therapy”.

How the values were obtained:
TGFβ1 (active, mature) = TGFβ1 (active, mature) (human, UniProt P01137 279-390); assay: MST; 37 °C, 2 h; MST: 30 nM Cy5-a'-Apt final with 45 pM (4.5 pM in Fig S3 legend) to 1.5 uM protein, 37 °C, 2 h; specificity MST 5 nM aptamer, 0.25 uM protein; buffer, salt and; conditions: protein: commercial; chain copies: 2; label: 5'-Cy5; annealed 95 °C 5 min, 4 °C 30 min
IFN-γ = IFN-γ (human, UniProt P01579 24-166); assay: MST; aptamer:protein 1:50; MST: 30 nM Cy5-a'-Apt final with 45 pM (4.5 pM in Fig S3 legend) to 1.5 uM protein, 37 °C, 2 h; specificity MST 5 nM aptamer, 0.25 uM protein; buffer, salt and; conditions: protein: commercial; chain copies: 2; label: 5'-Cy5; annealed 95 °C 5 min, 4 °C 30 min
IFN-γ, sequence (P01579 24-166): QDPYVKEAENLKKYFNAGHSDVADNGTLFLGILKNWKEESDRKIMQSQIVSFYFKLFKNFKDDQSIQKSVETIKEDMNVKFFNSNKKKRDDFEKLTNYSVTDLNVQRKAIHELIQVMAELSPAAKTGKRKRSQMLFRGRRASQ

TGFβ1 (active, mature), sequence (P01137 279-390): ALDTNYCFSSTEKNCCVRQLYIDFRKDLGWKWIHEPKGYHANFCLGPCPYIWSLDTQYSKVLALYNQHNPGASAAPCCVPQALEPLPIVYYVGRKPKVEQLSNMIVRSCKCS

B1: Cy5-a'-Apt (ssDNA)
DNA: TCGCTCGGCTTCACGAGATTCGTGTCGTTGTGTCCTGTACCCGCCTTGACCAGTCACTCTAGAGCATCCGGACTGTAGATGGAGTGTGGTGTGAAG
modifications: phosphorothioates at A and C bases (positions marked * in Table S3)
For B1, the Kd (TGFβ1 (active, mature)) was 28 nM and the binding result (IFN-γ) was “no binding”.
